From patent publication US20140287419A1, “Compositions Having Dicamba Decarboxylase Activity and Methods of Use” (priority 2013, published 2014)
Residue numbers refer to the chain shown, from its start.

B1: SEQ ID NO:50: hypothetical protein SSMG_03140, Streptomyces sp. AA4 (protein, listed as Streptomyces sp.)
chain: MARIVTLEEHWTDPAVTAAGMPNLLDHVPGYAAAFDPDTGMPYPRHPELLEDLGAARIADMDRHGITTQVLSLVNTFLPADVAPRLTAAANDAMAAAVEAFPGRFAAFATLPTAVPGAAADELRRCVGELGFVGTMIMGRTDGEFLDQPRFDPILRAASDLSVPVYLHPAPPPVAVSEASYAGGLSPAVSAAFRLAAWGWHQETAVHLLHLVLAGVLDRYPGLQFVLGHWGEFIPFYLDRLDESMPRRMTGLDRTFREYFRDNVFITPSGMFSQAQLRYCADTVGTDRIIHSVDFPMLGNEGAVSFLTDSHLSREDQEKIAHGNADALLGLG
B2: SEQ ID NO:51: TIM-barrel fold metal-dependent hydrolase, Mycobacterium gilvum Spyr1 (protein, listed as Mycobacterium gilvum)
chain: MARVIAIEEHYAHPGLQPAEALANLRKHPQLARIQDKLEDLGAGRLADMDAAGIDMQVLSHTVPGAEALPAAQAVDVVRQTNDDLAEVIAAHPDRFAGFAALPMRDPQAAATELQRAVGTLGFCGAMINGLIEGRFLDHPDFTPLLSTAADLGVPLYLHPSFPPPQVAQIYFGGLPPVLADLLATAGWGWHAETALHVLRLISTGVFDRLPELRVIVGHMGEMIPFALARIDTVLSPMTELRQPVAQYFQTNVWFTTSGYTTFPPLQCALSTVGIDRLIFSVDYPYTDNASARALLDTAPISPVDREKLAHATVEALLRV
B3: SEQ ID NO:57: amidohydrolase, Collimonas fungivorans Ter331 (protein)
chain: MAKLICVEEHVLDPAVGAATQSLVRAEAPYLPDWGSRVLDGRHVADRSRPHVIAPSESARKALEMGEPRLADMDAASIDMQVLSYGGFPQLLPAAQAIDLNRAANDKLALAAQAHPARFAGFATLPWQAPEAAARELERAVKQLGLKGALINGRPGDTFLDDARYAPILAAFDELKVPLYVHPGLPLPAVQAPYYGGFERELSARLAMFAWGWHNEAGIQVVRMLLAGVFDRHPRLQLISGHWGEMVPFFLQRLEDSIPQEASGLQRPIVQTYREHVYISPSGMFTLPHFQFIHALMGAQRILYSIDYPYQSLDGARAFIERLPISDTDKALIAHRNAERLLHL
modifications: Collimonas fungivorans
B4: SEQ ID NO:79: hypothetical protein PTT_18638, Pyrenophora teres f. teres 0-1 (protein)
chain: MATTTTPSTLIATLESHLTPTLAFTSPTTSPTQPALHLIPPTTLTKLRNLGPGRVKDMHMLGHSRQIISHIPVAAPPQICSRFNDAIHAATMTNTAKFSVLAVLPTDGMEAAKELARCVSKYRFVGGVIGLNRGLRINGEGWEELWGLAERLRIPIMFREMWPLAFEIVDYQHHLPYSALGPILTQLHTSHTSSPLPLVRLYLSSVFDHYPSLRLVLAHPGSLPSLVPRIESLINSIPATDKPKRSFLDVWQHNIYLTTADAQDMSSLRALLEQIPVDRVLYASNYPFEERGNELMNELRESEFLTNIEWERVAWVNAETLFNLKEAGTKEARQLTTIPSSRS
modifications: Pyrenophora teres
B5: SEQ ID NO:53: amidohydrolase, Granulicella tundricola MP5ACTX9 (protein, listed as Granulicella tundricola)
chain: MARTITLEEHFVTDSFLRATGAYDKPAPPWLAQLQPKLLDLGDGRIAAMDEAGIDLQVLSLAALGFDALDAATATPLVHDINDELAAAVRANPTRLAAFASLALKDPQSAARELERAIQKLGFRGVLLDGTTDGLFLDDPRFTPVFEAAVALNVPIYLHPAPPPESVFDTYFTGLPEGVGQMLSIAGWGWHAETALHTLRLITNGVFDRYPTLQLIIGHMGEMLPMALARTSKALSHAARLRQPVAAYFQSNIHLTTSGYFTQPPLRCALDVVGIDRLMFSIDYPFSANTLGRDYLTELEQTLTPEDLAKLIHRNAESLLNLS
B6: SEQ ID NO:81: 2-amino-3-carboxymuconate-6-semialdehyde decarboxylase, Verticillium dahliae VdLs.17 (protein, listed as Verticillium dahliae)
chain: MAASTKPKVVDIHTHMYPPSYIDILTSRTAIPVVRTFPQAADPRLILLDAEQQALDAALQDPTAKPPGRPLTSHYASLDQKIHFMDTHSIDISVVSLANPWLDFIEPKEAAATARSVNDEFEAMCASQPGRLFFFAALPLTAPLPALLEAVRHVAELEHCRGVILGTSGLGSGLDDPELVPVLEAVAAAALTVFLHPHYGLPNDVWGPRASAEYGHVLPLALGFPMETTIAVARMYLAGVFDRVPALRMLLAHSGGTLPFLAGRIESCILHDGQLVAEGKVGAARRTIWDVLREQVYLDAVIYSEIGLKAAIAASGGADRLMFGTDHPFFPPLGTDEQAKKESRINAGGSRPMITGNAMINGHGGLCNHITQSDYQDVVL
B7: SEQ ID NO:87: amidohydrolase, Novosphingobium sp. PP1Y (protein, listed as Novosphingobium sp.)
chain: MASDIATAADLQTGGRQGYLRIATEEAFATRDQIDVYLRMVRDGTADRGMTSLWGFYAQSPSARATQIIERLLDLGEQRLADMDAAGIDKAVLALTSPGVQPLLDMEEARRIAGNANDRLAERCAAHPDRFIGMTAVAPQDPQWSAREILRGATQLGFKGVQINSHTQGRYLDEPFFDPIFRALGDVGQPLYIHPGTPPDSMIGPLLDAGLDGAIYGFGVETGMHLLRLITAGIFDRYPDLQIMVGHMGEALPYWLYRLDYMHQAGIRSQRYERMRPLKRTIAGYFRSNVLVTCSGMAWEPAIQFARQVMGEDRVMYAMDYPYQYEADEVRALDVMDLSPESKRKFFQTNAERWFDL
B8: SEQ ID NO:58: amidohydrolase 2, Mycobacterium colombiense CECT 3035 (protein)
chain: MARVIALEEHYATTEFLRGPGTWLASRPGIVEPAGDLGDGRIAAMDQAGVDLAVLSLAAPGVEQLDPDDAVRLARDCNDQLAAAVRRYPDRLAGFATVPTSAPDRAADELERAVRGLGFPGAVINGHSRGRYLDDPFFEPVLARAAELQAPIYLHPTIPPAGVIESSYAGFAEPVTFALATVGWGWHINTATHALRMILGGVFDRHPSLQMIIGHMGEATSFMLPRFDATLKPELTGLNHPVSSYLRENFHYTFANFNDHATYANLVAQVGIERVAFSADYPFGSMVDARAFLDGLPLSDDERAAISHRNAEKLLGL
modifications: Mycobacterium colombiense
B9: SEQ ID NO:2: o-pyrocatechuate decarboxylase, Serratia sp. AS12 (protein, listed as Serratia sp.)
chain: MAKIICLEEHTLDKALVMASMPAALEQAPFLSDWGKTVTDGNLPDRSRPQIEKNDLINIKGADIGRGRLDDMDVAGITMQVLSVGGFPHLISAAEGVDLNRAANDRLADAVNAHPDRFAAFATLPWAQPDSAEKELERAVKELGFKGALLNGRPSTHFLDHPDYDGLLARFNALGVPLYLHPGLPVRSVQQAYYGGFSDEVTARLSMFGWGWHHEAGIHLLRLILSGAFDKYPNLQVISGHWGEMLPFWLQRLDDSLPQAATGLRRTIAQTFKEQVYVTPSGMLTLPHFQFIYALLGAERIIFSVDYPYQTLDGVKAFIQSLPVPEEAKEAIAFRNAERLLGLTS
B10: SEQ ID NO:55: o-pyrocatechuate decarboxylase, Serratia sp. AS12 (protein, listed as Serratia sp.)
chain: B9 chain
B11: SEQ ID NO:52: putative decarboxylase, Streptomyces sp. SA3_actG (protein, listed as Streptomyces sp.)
chain: MAKIIALEEHFSDPAVAKAGAARAQALSPGFAASYSPASGLPYSPSPEVLENLAEKRLADMDAGGITMQVLSGLSAQTVPADVAPALVAGSNDKAAAAVRAHPDRFAAFAALPTAAPEAAVAELDRSVNELGFVGTLIMGRTEGEFLDAPRFEPILARAAALKVPVFLHPGVPPREITDSNYAAGLPTGIGTRLQTAAWGWHQETAVHFLHLVHSGVLDRYPDLQFILGHWGETIPFYLDRVDEALPQRATGLDRSFHEYFRENVYLAPSGMWSQAQLRFCLETFPLERIVFAVDYPFIGNEGAVPFLEKAELPEADKRKIAHENAERLLGL
B12: SEQ ID NO:54: putative decarboxylase, Streptomyces sp. Tu6071 (protein, listed as Streptomyces sp.)
chain: B11 chain with S75G, V128I, D223G, T234M, F285V
B13: SEQ ID NO:56: hypothetical protein EAE_19025, Enterobacter aerogenes KCTC 2190 (protein)
chain: MAKIICLEEHYLDSELGRACMPVALEQAPFLGDWGKTVADGHNPDRSRPQIEKNALINAKGADLGSRRLRDMDEAGITLQILSVGGFPQLAPEDEAVTLNTAANDRLAEAVRNHPDRFAAFATLPWAQPKDAENELVRAVEKLGFKGALLNGRPSSCFLDHPDYDSLLSRFNKLNVPLYLHPGLPLKSVQQAYFTGFSAEVNARLSMFGWGWHHEAGIHLLRLMLSGAFDKYPNMQVISGHWGEMLPFWLQRLDDSLPLAATGLSRTLTRTFQEHVYVTPSGMLTLPHFKFIYELMGAERILFSVDYPYQTLDGVKTFIDSLPVNKAEKEAIAFRNAERLLGITA
modifications: Enterobacter aerogenes

Experiment: 14C assay with IPTG-induced recombinant E. coli cells (14CO2 capture from [14C]-carboxyl-labeled dicamba)
Details: E. coli cell assay, 108 sequences tested

Molecule	decarboxylation activity of dicamba
B1	showed decarboxylation activity of dicamba
B2	showed decarboxylation activity of dicamba
B3	showed decarboxylation activity of dicamba
B4	showed decarboxylation activity of dicamba
B5	showed decarboxylation activity of dicamba
B6	showed decarboxylation activity of dicamba
B7	showed decarboxylation activity of dicamba
B8	showed decarboxylation activity of dicamba
B9	showed decarboxylation activity of dicamba
B10	showed decarboxylation activity of dicamba
B11	showed decarboxylation activity of dicamba
B12	showed decarboxylation activity of dicamba
B13	showed decarboxylation activity of dicamba
